The test concerns the target Full-length recombinant human SIRT1 (human) (UniProt Q96EB6).
UniProt Q96EB6, sequence (Q96EB6 whole entry): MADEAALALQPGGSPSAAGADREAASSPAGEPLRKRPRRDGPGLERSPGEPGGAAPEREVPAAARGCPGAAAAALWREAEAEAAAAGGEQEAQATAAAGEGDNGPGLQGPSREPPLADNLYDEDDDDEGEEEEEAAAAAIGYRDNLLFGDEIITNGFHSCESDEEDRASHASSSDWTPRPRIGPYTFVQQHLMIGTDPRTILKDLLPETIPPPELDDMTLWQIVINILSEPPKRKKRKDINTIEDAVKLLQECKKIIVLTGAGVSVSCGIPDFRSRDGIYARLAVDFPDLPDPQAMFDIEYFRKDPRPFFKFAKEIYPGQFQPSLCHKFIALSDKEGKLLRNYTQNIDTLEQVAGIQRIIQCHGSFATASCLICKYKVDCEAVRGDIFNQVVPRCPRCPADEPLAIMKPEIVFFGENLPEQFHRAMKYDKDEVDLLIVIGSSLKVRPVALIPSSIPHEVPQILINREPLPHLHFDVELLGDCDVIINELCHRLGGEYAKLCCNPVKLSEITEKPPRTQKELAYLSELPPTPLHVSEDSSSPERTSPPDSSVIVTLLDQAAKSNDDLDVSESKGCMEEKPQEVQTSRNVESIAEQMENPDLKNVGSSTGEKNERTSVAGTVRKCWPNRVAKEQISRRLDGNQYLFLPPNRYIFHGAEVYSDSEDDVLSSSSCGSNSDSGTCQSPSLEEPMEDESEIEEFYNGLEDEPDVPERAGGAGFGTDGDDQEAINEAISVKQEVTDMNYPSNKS

As to H4K16Ac synthetic peptide, the Km of the peptide substrate in SIRT1-catalysed deacetylation (HPLC assay, 500 uM NAD+, 0.5 uM SIRT1, 100 mM phosphate pH 7.5, 37 °C) was 46.4 µM.
